In patent US20060024313A1, “Agents that disrupt dimer formation in DPP-IV family of prolyl dipeptidases” (priority 2004, published 2006):
“Also recorded” adds a separate entry of the source.

How the values were obtained:
DPP-IV = assay: Kinetic constant measurements with chromogenic substrate H-Gly-Pro-pNA; assay type: biochemical, human
Procedure: To measure the kinetic parameters, the chromogenic substrate H-Gly-Pro-pNA was utilized to initiate the reaction, which was monitored at OD 405 nm as a function of time (21). […] The initial rate was measured with less than 10% substrate depletion for the first 10 to 300 seconds. The steady-state parameters, kcat and Km, were determined from initial velocity measurements at 0.5 to 5 Km of the substrate concentrations. Lineweaver-Burk plots were analyzed using non-linear regression of the Michaelis-Menten equation. Correlation coefficients better than 0.99 were obtained throughout.

[1] = Analytical ultracentrifugation (AUC): sedimentation velocity and equilibrium; assay type: physicochemical; settings: PBS buffer where stated
Procedure: Buffer was changed using an Amicon device and DPP-IV proteins were allowed to equilibrate for at least four hours or longer as indicated in the text at 25° C. after buffer changes. The sedimentation coefficients (S) of the enzyme were estimated by a Beckman-Coulter XL-A analytical ultracentrifuge with an An60Ti rotor as described (25). Sedimentation velocity analysis was performed at 40,000 rpm at 25° C. with standard double sector aluminum centerpieces. The UV absorption of the cells was scanned every 5 min for 4 hours. Sedimentation equilibrium was performed at 20° C. with six-channel open centerpieces and then centrifuged at 12,000 rpm for 12 hours. The data from both sedimentation velocity and sedimentation experiments were analyzed with the SedFit version 8.7 program to obtain molecular weights and sedimentation coefficients (25). Sednterp version 1.07 program is used to obtain solvent density, viscosity, Stokes' radius (Rs) and anhydrous frictional ratio (f/fo).

[2] = Table III, monomer form of the mutant
[3] = values in text, monomeric mutants
[4] = Table III, dimer form of the mutant

Molecule | Km (DPP-IV; [2]) [µM] | kcat (DPP-IV; [2]) [s − 1] | Km (DPP-IV; [3]) [µM] | kcat (DPP-IV; [3]) [S^−1] | quaternary structure (monomer/dimer) by AUC ([1]; listed as F713A) | quaternary structure (monomer/dimer) by AUC [1] | Km (DPP-IV; [4]) [µM] | kcat (DPP-IV; [4]) [s − 1]
713A: DPP-IV C-terminal loop mutant, F713 substituted with Alanine (protein) SRKTYTLTDYLKNTYRLKLYSLRWISDHEYLYKQENNILVFNAEYGNSSVFLENSTFDEFGHSINDYSISPDGQFILLEYNYVKQWRHSYTASYDIYDLNKRQLITEERIPNNTQWVTWSPVGHKLAYVWNNDIYVKIEPNLPSYRITWTGKEDIIYNGITDWVYEEEVFSAYSALWWSPNGTFLAYAQFNDTEVPLIEYSFYSDESLQYPKTVRVPYPKAGAVNPTVKFFVVNTDSLSSVTNATSIQITAPASMLIGDHYLCDVTWATQERISLQWLRRIQNYSVMDICDYDESSGRWNCLVARQHIEMSTTGWVGRFRPSEPHFTLDGNSFYKIISNEEGYRHICYFQIDKKDCTFITKGTWEVIGIEALTSDYLYYISNEYKGMPGGRNLYKIQLSDYTKVTCLSCELNPERCQYYSVSFSKEAKYYQLRCSGPGLPLYTLHSSVNDKGLRVLEDNSALDKMLQNVQMPSKKLDFIILNETKFWYQMILPPHFDKSKKYPLLLDVYAGPCSQKADTVFRLNWATYLASTENIIVASFDGRGSGYQGDKIMHAINRRLGTFEVEDQIEAARQFSKMGFVDNKRIAIWGWSYGGYVTSMVLGSGSGVFKCGIAVAPVSRWEYYDSVYTERYMGLPTPEDNLDHYRNSTVMSRAENFKQVEYLLIHGTADDNVHAQQSAQISKALVDVGVDFQAMWYTDEDHGIASSTAHQHIYTHMSHFIKQCFSLP | 50.1 | 1.8 | 51 | 1 | monomers; also recorded: monomeric DPP-IV | – | – | –
734A: DPP-IV C-terminal loop mutant, W734 substituted with Alanine (protein) SRKTYTLTDYLKNTYRLKLYSLRWISDHEYLYKQENNILVFNAEYGNSSVFLENSTFDEFGHSINDYSISPDGQFILLEYNYVKQWRHSYTASYDIYDLNKRQLITEERIPNNTQWVTWSPVGHKLAYVWNNDIYVKIEPNLPSYRITWTGKEDIIYNGITDWVYEEEVFSAYSALWWSPNGTFLAYAQFNDTEVPLIEYSFYSDESLQYPKTVRVPYPKAGAVNPTVKFFVVNTDSLSSVTNATSIQITAPASMLIGDHYLCDVTWATQERISLQWLRRIQNYSVMDICDYDESSGRWNCLVARQHIEMSTTGWVGRFRPSEPHFTLDGNSFYKIISNEEGYRHICYFQIDKKDCTFITKGTWEVIGIEALTSDYLYYISNEYKGMPGGRNLYKIQLSDYTKVTCLSCELNPERCQYYSVSFSKEAKYYQLRCSGPGLPLYTLHSSVNDKGLRVLEDNSALDKMLQNVQMPSKKLDFIILNETKFWYQMILPPHFDKSKKYPLLLDVYAGPCSQKADTVFRLNWATYLASTENIIVASFDGRGSGYQGDKIMHAINRRLGTFEVEDQIEAARQFSKMGFVDNKRIAIWGWSYGGYVTSMVLGSGSGVFKCGIAVAPVSRWEYYDSVYTERYMGLPTPEDNLDHYRNSTVMSRAENFKQVEYLLIHGTADDNVHFQQSAQISKALVDVGVDFQAMAYTDEDHGIASSTAHQHIYTHMSHFIKQCFSLP | 90.5 | 0.3 | – | – | – | monomers | – | –
735A: DPP-IV C-terminal loop mutant, Y735 substituted with Alanine (protein) SRKTYTLTDYLKNTYRLKLYSLRWISDHEYLYKQENNILVFNAEYGNSSVFLENSTFDEFGHSINDYSISPDGQFILLEYNYVKQWRHSYTASYDIYDLNKRQLITEERIPNNTQWVTWSPVGHKLAYVWNNDIYVKIEPNLPSYRITWTGKEDIIYNGITDWVYEEEVFSAYSALWWSPNGTFLAYAQFNDTEVPLIEYSFYSDESLQYPKTVRVPYPKAGAVNPTVKFFVVNTDSLSSVTNATSIQITAPASMLIGDHYLCDVTWATQERISLQWLRRIQNYSVMDICDYDESSGRWNCLVARQHIEMSTTGWVGRFRPSEPHFTLDGNSFYKIISNEEGYRHICYFQIDKKDCTFITKGTWEVIGIEALTSDYLYYISNEYKGMPGGRNLYKIQLSDYTKVTCLSCELNPERCQYYSVSFSKEAKYYQLRCSGPGLPLYTLHSSVNDKGLRVLEDNSALDKMLQNVQMPSKKLDFIILNETKFWYQMILPPHFDKSKKYPLLLDVYAGPCSQKADTVFRLNWATYLASTENIIVASFDGRGSGYQGDKIMHAINRRLGTFEVEDQIEAARQFSKMGFVDNKRIAIWGWSYGGYVTSMVLGSGSGVFKCGIAVAPVSRWEYYDSVYTERYMGLPTPEDNLDHYRNSTVMSRAENFKQVEYLLIHGTADDNVHFQQSAQISKALVDVGVDFQAMWATDEDHGIASSTAHQHIYTHMSHFIKQCFSLP | 88.6 | 0.05 | – | – | – | monomers | – | –
724A: DPP-IV C-terminal loop mutant, V724 substituted with Alanine (protein) SRKTYTLTDYLKNTYRLKLYSLRWISDHEYLYKQENNILVFNAEYGNSSVFLENSTFDEFGHSINDYSISPDGQFILLEYNYVKQWRHSYTASYDIYDLNKRQLITEERIPNNTQWVTWSPVGHKLAYVWNNDIYVKIEPNLPSYRITWTGKEDIIYNGITDWVYEEEVFSAYSALWWSPNGTFLAYAQFNDTEVPLIEYSFYSDESLQYPKTVRVPYPKAGAVNPTVKFFVVNTDSLSSVTNATSIQITAPASMLIGDHYLCDVTWATQERISLQWLRRIQNYSVMDICDYDESSGRWNCLVARQHIEMSTTGWVGRFRPSEPHFTLDGNSFYKIISNEEGYRHICYFQIDKKDCTFITKGTWEVIGIEALTSDYLYYISNEYKGMPGGRNLYKIQLSDYTKVTCLSCELNPERCQYYSVSFSKEAKYYQLRCSGPGLPLYTLHSSVNDKGLRVLEDNSALDKMLQNVQMPSKKLDFIILNETKFWYQMILPPHFDKSKKYPLLLDVYAGPCSQKADTVFRLNWATYLASTENIIVASFDGRGSGYQGDKIMHAINRRLGTFEVEDQIEAARQFSKMGFVDNKRIAIWGWSYGGYVTSMVLGSGSGVFKCGIAVAPVSRWEYYDSVYTERYMGLPTPEDNLDHYRNSTVMSRAENFKQVEYLLIHGTADDNVHFQQSAQISKALADVGVDFQAMWYTDEDHGIASSTAHQHIYTHMSHFIKQCFSLP | 76.4 | 0.5 | – | – | – | mixture with both monomers and dimers | 87.5 | 48.3
730A: DPP-IV C-terminal loop mutant, F730 substituted with Alanine (protein) SRKTYTLTDYLKNTYRLKLYSLRWISDHEYLYKQENNILVFNAEYGNSSVFLENSTFDEFGHSINDYSISPDGQFILLEYNYVKQWRHSYTASYDIYDLNKRQLITEERIPNNTQWVTWSPVGHKLAYVWNNDIYVKIEPNLPSYRITWTGKEDIIYNGITDWVYEEEVFSAYSALWWSPNGTFLAYAQFNDTEVPLIEYSFYSDESLQYPKTVRVPYPKAGAVNPTVKFFVVNTDSLSSVTNATSIQITAPASMLIGDHYLCDVTWATQERISLQWLRRIQNYSVMDICDYDESSGRWNCLVARQHIEMSTTGWVGRFRPSEPHFTLDGNSFYKIISNEEGYRHICYFQIDKKDCTFITKGTWEVIGIEALTSDYLYYISNEYKGMPGGRNLYKIQLSDYTKVTCLSCELNPERCQYYSVSFSKEAKYYQLRCSGPGLPLYTLHSSVNDKGLRVLEDNSALDKMLQNVQMPSKKLDFIILNETKFWYQMILPPHFDKSKKYPLLLDVYAGPCSQKADTVFRLNWATYLASTENIIVASFDGRGSGYQGDKIMHAINRRLGTFEVEDQIEAARQFSKMGFVDNKRIAIWGWSYGGYVTSMVLGSGSGVFKCGIAVAPVSRWEYYDSVYTERYMGLPTPEDNLDHYRNSTVMSRAENFKQVEYLLIHGTADDNVHFQQSAQISKALVDVGVDAQAMWYTDEDHGIASSTAHQHIYTHMSHFIKQCFSLP | 53.7 | 0.2 | – | – | – | mixture with both monomers and dimers | 56.3 | 27.9
DPP 8: member of the DPP-IV family of prolyl dipeptidases (protein) MAAAMETEQLGVEIFETADCEENIESQDRPKLEPFYVERYSWSQLKKLLADTRKYHGYMMAKAPHDFMFVKRNDPDGPHSDRIYYLAMSGENRENTLFYSEIPKTINRAAVLMLSWKPLLDLFQATLDYGMYSREEELLRERKRIGTVGIASYDYHQGSGTFLFQAGSGIYHVKDGGPQGFTQQPLRPNLVETSCPNIRMDPKLCPADPDWIAFIHSNDIWISNIVTREERRLTYVHNELANMEEDARSAGVATFVLQEEFDRYSGYWWCPKAETTPSGGKILRILYEENDESEVEIIHVTSPMLETRRADSFRYPKTGTANPKVTFKMSEIMIDAEGRIIDVIDKELIQPFEILFEGVEYIARAGWTPEGKYAWSILLDRSQTRLQIVLISPELFIPVEDDVMERQRLIESVPDSVTPLIIYEETTDIWINIHDIFHVFPQSHEEEIEFIFASECKTGFRHLYKITSILKESKYKRSSGGLPAPSDFKCPIKEEIAITSGEWEVLGRHGSNIQVDEVRRLVYFEGTKDSPLEHHLYVVSYVNPGEVTRLTDRGYSHSCCISQHCDFFISKYSNQKNPHCVSLYKLSSPEDDPTCKTKEFWATILDSAGPLPDYTPPEIFSFESTTGFTLYGMLYKPHDLQPGKKYPTVLFIYGGPQVQLVNNRFKGVKYFRLNTLASLGYVVVVIDNRGSCHRGLKFEGAFKYKMGQIEIDDQVEGLQYLASRYDFIDLDRVGIHGWSYGGYLSLMALMQRSDIFRVAIAGAPVTLWIFYDTGYTERYMGHPDQNEQGYYLGSVAMQAEKFPSEPNRLLLLHGFLDENVHFAHTSILLSFLVRAGKPYDLQIYPQERHSIRVPESGEHYELHLLHYLQENLGSRIAALKVI | – | – | – | – | – | is a dimer; also recorded: exists as a dimer | – | –
